Publication PMC2857461 (The EMBO Journal, 2010)

Assays:
cross-linking = target: the molecule itself; test: cross-linking
AUC = target: the molecule itself; test: AUC

B1: His‐CT2 (domain or fragment, human, UniProt Q13563 680-968, looked up)
chain: INDTYSEVKSDLAQQKAEMELSDLIRKGYHKALVKLKLKKNTVDDISESLRQGGGKLNFDELRQDLKGKGHTDAEIEAIFTKYDQDGDQELTEHEHQQMRDDLEKEREDLDLDHSSLPRPMSSRSFPRSLDDSEEDDDEDSGHSSRRRGSISSGVSYEEFQVLVRRVDRMEHSIGSIVSKIDAVIVKLEIMERAKLKRREVLGRLLDGVAEDERLGRDSEIHREQMERLVREELERWESDDAASQISHGLGTPVGLNGQPRPRSSRPSSSQSTEGMEGAGGNGSSNVHV
stoichiometry N (cross-linking): 4 | stoichiometry N (AUC): 2
